Substitutions are numbered along the chain they refer to.
T1: human TGFβ3 (human, UniProt P10600 301-412)
T1 sequence: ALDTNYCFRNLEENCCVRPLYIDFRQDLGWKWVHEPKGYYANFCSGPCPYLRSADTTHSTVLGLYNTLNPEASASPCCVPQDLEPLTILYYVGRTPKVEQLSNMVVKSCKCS

T2: human TGFβ2 (human, UniProt P61812 303-414)
T2 construct: also called TGFβ2 homodimer
T2 sequence: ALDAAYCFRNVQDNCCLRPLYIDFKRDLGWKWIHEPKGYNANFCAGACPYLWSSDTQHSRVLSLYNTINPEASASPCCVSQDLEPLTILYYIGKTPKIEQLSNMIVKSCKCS

B1: D56S (antibody, V domains shown)
VH: QVQLVQSGAEVKKPGSSVKVSCKASGYTFSSNVISWVRQAPGQGLEWMGGVIPIVSIANYAQRFKGRVTITADESTSTTYMELSSLRSEDTAVYYCASTLGLVLDAMDYWGQGTLVTVSS
VL: ETVLTQSPGTLSLSPGERATLSCRASQSLGSSYLAWYQQKPGQAPRLLIYGASSRAPGIPDRFSGSGSGTDFTLTISRLEPEDFAVYYCQQYADSPITFGQGTRLEIK
notes: GC1008 IgG4 variant
B2: N32D (antibody, V domains shown)
VH: B1 VH with N32D, S56D
VL: B1 VL
notes: GC1008 IgG4 variant
B3: N32Y (antibody, V domains shown)
VH: B1 VH with N32Y, S56D
VL: B1 VL
notes: GC1008 IgG4 variant
B4: N32W (antibody, V domains shown)
VH: B1 VH with N32W, S56D
VL: B1 VL
notes: GC1008 IgG4 variant
B5: P53I (antibody, V domains shown)
VH: B1 VH with P53I, S56D
VL: B1 VL
notes: GC1008 IgG4 variant
B6: E74C (antibody, V domains shown)
VH: B1 VH with S56D, E74C
VL: B1 VL
notes: GC1008 IgG4 variant
B7: G101Y (antibody, V domains shown)
VH: B1 VH with S56D, G101Y
VL: B1 VL
notes: GC1008 IgG4 variant
B8: N32G (antibody, V domains shown)
VH: B1 VH with N32G, S56D
VL: B1 VL
notes: GC1008 IgG4 variant
B9: N32A (antibody, V domains shown)
VH: B1 VH with N32A, S56D
VL: B1 VL
notes: GC1008 IgG4 variant
B10: I54V (antibody, V domains shown)
VH: B1 VH with I54V, S56D
VL: B1 VL
notes: GC1008 IgG4 variant
B11: N59Y (antibody, V domains shown)
VH: B1 VH with S56D, N59Y
VL: B1 VL
notes: GC1008 IgG4 variant
B12: I54M (antibody, V domains shown)
VH: B1 VH with I54M, S56D
VL: B1 VL
notes: GC1008 IgG4 variant
B13: I54L (antibody, V domains shown)
VH: B1 VH with I54L, S56D
VL: B1 VL
notes: GC1008 IgG4 variant
B14: N32M (antibody, V domains shown)
VH: B1 VH with N32M, S56D
VL: B1 VL
notes: GC1008 IgG4 variant
B15: N32L (antibody, V domains shown)
VH: B1 VH with N32L, S56D
VL: B1 VL
notes: GC1008 IgG4 variant
B16: D56V (antibody, V domains shown)
VH: B1 VH with S56V
VL: B1 VL
notes: GC1008 IgG4 variant
B17: S30D (antibody, V domains shown)
VH: B1 VH with S30D, S56D
VL: B1 VL
notes: GC1008 IgG4 variant
B18: L104W (antibody, V domains shown)
VH: B1 VH with S56D, L104W
VL: B1 VL
notes: GC1008 IgG4 variant
B19: D56T (antibody, V domains shown)
VH: B1 VH with S56T
VL: B1 VL
notes: GC1008 IgG4 variant
B20: I54A (antibody, V domains shown)
VH: B1 VH with I54A, S56D
VL: B1 VL
notes: GC1008 IgG4 variant
B21: N32R (antibody, V domains shown)
VH: B1 VH with N32R, S56D
VL: B1 VL
notes: GC1008 IgG4 variant
B22: I54H (antibody, V domains shown)
VH: B1 VH with I54H, S56D
VL: B1 VL
notes: GC1008 IgG4 variant
B23: N32Q (antibody, V domains shown)
VH: B1 VH with N32Q, S56D
VL: B1 VL
notes: GC1008 IgG4 variant
B24: N32V (antibody, V domains shown)
VH: B1 VH with N32V, S56D
VL: B1 VL
notes: GC1008 IgG4 variant
B25: S30C (antibody, V domains shown)
VH: B1 VH with S30C, S56D
VL: B1 VL
notes: GC1008 IgG4 variant
B26: N59R (antibody, V domains shown)
VH: B1 VH with S56D, N59R
VL: B1 VL
notes: GC1008 IgG4 variant
B27: I54P (antibody, V domains shown)
VH: B1 VH with I54P, S56D
VL: B1 VL
notes: GC1008 IgG4 variant
B28: I52V (antibody, V domains shown)
VH: B1 VH with I52V, S56D
VL: B1 VL
notes: GC1008 IgG4 variant
B29: N32S (antibody, V domains shown)
VH: B1 VH with N32S, S56D
VL: B1 VL
notes: GC1008 IgG4 variant
B30: N32P (antibody, V domains shown)
VH: B1 VH with N32P, S56D
VL: B1 VL
notes: GC1008 IgG4 variant
B31: N32T (antibody, V domains shown)
VH: B1 VH with N32T, S56D
VL: B1 VL
notes: GC1008 IgG4 variant

Key:
Assay in all cases: Biacore off-rate vs wt GC1008, 50 nM
[1] = target: T1, human TGFβ3
Excerpt: (§1) Plasmids encoding either the GC1008 heavy chain or light chain were used as a template in PCR-based mutagenesis reactions. Mutations to the encoding DNA were made to create 155 single amino acid substitutions of the encoded heavy chain amino acid sequence and one single amino acid substitution of the encoded light chain amino acid sequence. A QuikChange® Lightning Site-Directed Mutagenesis kit (Agilent Technologies, Santa Clara Calif.) was used according to the manufacturer's instructions to create DNA mutations using a set of forward and reverse primers, either designed for a specific amino acid or for all 20 amino acids with a degenerate codon (NNK). After sequencing confirmation, identified mutant DNA was paired with a wild-type light or heavy chain DNA for transfection into an Expi293F™ host cell suspension (Life Techonologies Corp., Grand Island, N.Y.). At 4 days post-transfection, conditioned media (1 mL) was harvested and purified using a 1 mL Protein A PhyTip® column (PhyNexus, Inc., San Jose, Calif.) and a PureSpeed™ 12-channel pipette (Rainin Instrument LLC, Oakland, Calif.). Purified variant antibody samples were analyzed in duplicate on a Biacore® 3000 (GE Healthcare) at 50 nM concentrations, using the 100 RU level TGFβ1, 2, and 3 immobilized surfaces. The off-rate (kd) of the variants was divided by the kd of the wild-type control to obtain the fold change in the kd. […] A heat map was generated to visualize the results. Variants that completely lost affinity for TGFβ were shown in red without numbers.

[2] = target: T3, human TGFβ1 (human, UniProt P01137 279-390)
T3 construct: also called TGFβ1 homodimer
Excerpt: as §1

[3] = target: T2, human TGFβ2
Excerpt: as §1

T3 sequence (P01137 279-390 limits assumed): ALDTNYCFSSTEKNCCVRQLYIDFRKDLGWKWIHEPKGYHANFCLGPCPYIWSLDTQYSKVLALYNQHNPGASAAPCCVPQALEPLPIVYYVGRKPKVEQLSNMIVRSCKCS

Binder	kd var/kd wt [1]	kd var/kd wt [2]	kd var/kd wt [3]
B1	1	1.1	1.3
B2	1.8	1.3	1.4
B3	1.7	2.1	1.2
B4	1.1	1.9	1.2
B5	1.3	4.3	1.6
B6	0.7	1.7	0.8
B7	2	1.9	1.5
B8	1.6	1.2	1.2
B9	1.5	1.3	1.4
B10	0.8	1	1
B11	1.5	1.3	1.1
B12	1.7	1.5	1.3
B13	1.1	1.2	1.1
B14	1.2	1.3	1.3
B15	1.7	1.6	1.3
B16	1.3	1.6	1.5

Binder	kd var/kd wt [1]	kd var/kd wt [2]	kd var/kd wt [3]
B17	1.1	1.4	1.2
B18	5.1	4.7	2.9
B19	1.2	1.3	1.5
B20	2	1.8	1.5
B21	1.7	2.3	1.2
B22	1.6	2.1	1.4
B23	0.7	0.8	0.8
B24	1.4	1.5	1.1
B25	1	1.2	1.1
B26	1.5	2.4	1.1
B27	1.6	1.5	1.3
B28	1.2	0.9	1.1
B29	1.2	1.3	1.3
B30	1.4	2	1.1
B31	1.1	1.5	1.2
